This series concerns the molecule itself. Kind of series: crystal structure.

B1: human DNMT3A (R836A) C-terminal domain (residues 628-912) (domain or fragment, UniProt Q9Y6K1-1 628-912, looked up)
chain: AEKRKPIRVLSLFDGIATGLLVLKDLGIQVDRYIASEVCEDSITVGMVRHQGKIMYVGDVRSVTQKHIQEWGPFDLVIGGSPCNDLSIVNPARKGLYEGTGRLFFEFYRLLHDARPKEGDDRPFFWLFENVVAMGVSDKRDISRFLESNPVMIDAKEVSAAHRARYFWGNLPGMNRPLASTVNDKLELQECLEHGRIAKFSKVRTITTASNSIKQGKDQHFPVFMNEKEDILWCTEMERVFGFPVHYTDVSNMSRLARQRLLGRSWSVPVIRHLFAPLKEYFACV
modifications: covalently bound to Zebularine of the 25-mer DNA
For B1, the binding result is on record as “binds”.

The record behind these values is PMC5814352 (Nature, 2018).
